Experimental data published in ChEMBL document CHEMBL2074277, “Expression and localization of organic cation/carnitine transporter OCTN2 in Caco-2 cells” (Am J Physiol Gastrointest Liver Physiol, 2003).

Substrate: C[N+](C)(C)CC(O)CC(=O)[O-]
Test: TP_TRANSPORTER: uptake in Caco-2 cells
Format: functional, cell-based

B1: Organic cation/carnitine transporter 2 (Homo sapiens) (protein)
chain: MRDYDEVTAFLGEWGPFQRLIFFLLSASIIPNGFTGLSSVFLIATPEHRCRVPDAANLSSAWRNHTVPLRLRDGREVPHSCRRYRLATIANFSALGLEPGRDVDLGQLEQESCLDGWEFSQDVYLSTIVTEWNLVCEDDWKAPLTISLFFVGVLLGSFISGQLSDRFGRKNVLFVTMGMQTGFSFLQIFSKNFEMFVVLFVLVGMGQISNYVAAFVLGTEILGKSVRIIFSTLGVCIFYAFGYMVLPLFAYFIRDWRMLLVALTMPGVLCVALWWFIPESPRWLISQGRFEEAEVIIRKAAKANGIVVPSTIFDPSELQDLSSKKQQSHNILDLLRTWNIRMVTIMSIMLWMTISVGYFGLSLDTPNLHGDIFVNCFLSAMVEVPAYVLAWLLLQYLPRRYSMATALFLGGSVLLFMQLVPPDLYYLATVLVMVGKFGVTAAFSMVYVYTAELYPTVVRNMGVGVSSTASRLGSILSPYFVYLGAYDRFLPYILMGSLTILTAILTLFLPESFGTPLPDTIDQMLRVKGMKHRKTPSHTRMLKDGQERPTILKSTAF
Km: 14.1 µM
